Patent US20250296984A1, “THERAPEUTIC AND DIAGNOSTIC AGENTS AND USES THEREOF” (priority 2022, published 2025)
Numbering of substitutions follows the chain as printed. Marks after values point to notes of the source that are not given here.

B1: 13-1C10-1C10: mouse hybridoma subclone antibody against US28 ECD3 Peptide-1 and -2; sequenced (antibody)
heavy: EVKLVESGGVLVKPGGSLKFSCAASGFTFSSHALSWVRQTPEKRLEWVASISSRGRTYYPDSVKGRFTVSRDNARNILYLQVSSLRSEDTAMYYCTRGGTHYSYGNGFDFWGQGTTLTVSSAKTTPPSVYPLAPGSAAQTNSMVTLGCLVKGYFPEPVTVTWNSGSLSSGVHTFPAVLQSDLYTLSSSVTVPSSTWPSETVTCNVAHPASSTKVDKKIVPRDCGCKPCICTVPEVSSVFIFPPKPKDVLTITLTPKVTCVVVDISKDDPEVQFSWFVDDVEVHTAQTQPREEQFNSTFRSVSELPIMHQDWLNGKEFKCRVNSAAFPAPIEKTISKTKGRPKAPQVYTIPPPKEQMAKDKVSLTCMITDFFPEDITVEWQWNGQPAENYKNTQPIMDTDGSYFIYSKLNVQKSNWEAGNTFTCSVLHEGLHNHHTEKSLSHSPGK
light: QIVLTQSPAIMSASPGEKVTMTCSVSSSVSYMHWYQQKSGTSPKRWIYDTSKLASGVPARFSGSGSGTSYSLTISTMEAEDAATYYCQQWSNNPPITFGAGTKLELKRADAAPTVSIFPPSSEQLTSGGASVVCFLNNFYPKDINVKWKIDGSERQNGVLNSWTDQDSKDSTYSMSSTLTLTKDEYERHNSYTCEATHKTSTSPIVKSFNRNEC
B2: 14-1H3-1A10: mouse hybridoma subclone antibody against US28 ECD3 Peptide-1 and -2; sequenced (antibody)
heavy: B1 heavy with F29L
light: B1 light
B3: 13-5G6-1D3 clone: antibody from hybridoma clone US28-13-5G6-1D3 (antibody)
heavy: EVKLVESGGGLVQPGGSLRLACATSGFTFTDYYMSWVRQPPGKALEWLGFIRSKANGYTTEYSASVKGRFTISRDNSQSILYLQMNTLRSEDSATYYCARDERRTAWLAYWGQGTLVTVSAAKTTPPSVYPLAPGSAAQTNSMVTLGCLVKGYFPEPVTVTWNSGSLSSGVHTFPAVLQSDLYTLSSSVTVPSSTWPSETVTCNVAHPASSTKVDKKIVPRDCGCKPCICTVPEVSSVFIFPPKPKDVLTITLTPKVTCVVVDISKDDPEVQFSWFVDDVEVHTAQTQPREEQFNSTFRSVSELPIMHQDWLNGKEFKCRVNSAAFPAPIEKTISKTKGRPKAPQVYTIPPPKEQMAKDKVSLTCMITDFFPEDITVEWQWNGQPAENYKNTQPIMDTDGSYFIYSKLNVQKSNWEAGNTFTCSVLHEGLHNHHTEKSLSHSPGK
light: DVLMTQTPLSLPVSLGDQASISCRSSQSIVHSNGNTYLDWYLQKPGQSPKLLIYKVSNRFSGVPDRFSGSGSGTDFTLKISRVEAEDLGVYYCFQGSHVPTWTFGGGTKLEIKRADAAPTVSIFPPSSEQLTSGGASVVCFLNNFYPKDINVKWKIDGSERQNGVLNSWTDQDSKDSTYSMSSTLTLTKDEYERHNSYTCEATHKTSTSPIVKSFNRNEC

Legend:
[1] = tested on: control CHO cells (US28 negative); assay: FACS binding to US28 negative control CHO cells; parameters: species or system Chinese hamster; conditions: Table 7A; (1:5) (200 μg/ml); secondary antibody background removed
Procedure: (§1) Flowcytometry was used to analyze cell surface binding by the US28 antibodies. Upon cell harvest, adherent non-infected and US28 overexpressing or HCMV infected cells were washed three times with cell staining buffer (phosphate-buffered saline (PBS (Amresco, Cleveland, 44139, USA) added 0.5% BSA and 0.05% Sodium Azide (NaN3)). The cells were trypisinized and then resuspended in DMEM with 10% FBS to inhibit the action of trypsin. The cells were then pelleted at 400×g for 10 minutes and washed three times in cell staining buffer. Cell viability and cell concentration were measured by tryphan blue viability assay and a cell counter (Countess, Invitrogen, Carlsbad, CA 92008, USA). The cell suspension was adjusted to 1×10^6 cells/mL with ice-cold cell staining buffer. The cells were blocked in 1 ml 10% FBS or 1% BSA in PBS per 1×10^6 cells, vortexed briefly, and incubated for 10-30 minutes to eliminate non-specific staining. The cells were then stained with the respective antibodies and appropriate negative controls.
(§2) In both cases (ECD1 and ECD3), the antibodies were added to the cells, vortexed and incubated on ice for 15 to 30 minutes up to overnight and washed twice with cell staining buffer to remove any unbound antibodies. In addition, the CMV Immediate Early Antigen (IE) Alexa488 Ab, MAB810X, 1:50 was included to verify HCMV infected cells in one of the experiments. Because it binds to an intracellular, HCMV encoded protein, it was added after permeabilizing the cells in 70% ethanol for 30 min on ice.
(§3) 1:500-1:5000 in cell staining buffer of the appropriate fluorescent-conjugated appropriate secondary antibodies were added and incubated on ice for 15-20 min in the dark. The cells were washed three times to remove any unbound antibodies. The cells were then fixed with 0.5% paraformaldehyde (PFA) for 30 min on ice and resuspended in 200-500 μL cell staining buffer for final flow cytometric analysis using an Accuri C6 flow cytometry system (BD Biosciences, San Jose, CA 95131, USA). Data analyses were performed using FlowJo software v8.8 (Treestar Inc. Ashland, OR 97520, USA).
(§4) Background levels were determined using the respective secondary antibodies (anti-mFc-FITC for the subclones, or anti-myc-PE for the VUN100 molecules) with CHO cells and CHO-US28 cells. Given that US28 is expressed on the cell surface, the cells were non-permeabilised for these experiments.

[2] = molecular target: T1, Peptide-2 […] (SEQ ID NO: 7), US28 ECD3 4D variant (Human cytomegalovirus, UniProt P69332); assay: ELISA, binding to Bio-Peptide-2; parameters: species or system HCMV; conditions: 4D variant peptide
T1 construct: made in house; host or cells: chemical synthesis
Procedure: Microtiter plate wells were coated with 100 μl of the solution containing: (i) Bio-Peptide-N; or (ii) Bio-Peptide-1 and Bio-Peptide-2; at a concentration of between 1-10 μg/ml in coating buffer, consisting of Na2CO3, 1.5 g and NaHCO3, 2.93 g in 1 L of distilled water in pH 9.6, and then incubated for 1-2 hours at room temperature. The plate was washed 3 times in wash buffer consisting of PBS containing 0.05% v/v Tween-20 and blotted with paper towels thereafter. 150 μl of blocking solution containing Phosphate buffered saline (PBS) containing 1% w/v BSA, was added to each well and the plate was incubated for 2 hours at 37° C. The wells were washed 4 times in wash buffer and blotted on paper towels after the last wash. 100 μl of antibody dilution was added to each well and the plate was incubated for 1 hour at 37° C. and thereafter washed 3 times in wash buffer. 100 μl enzyme-conjugated secondary antibody (appropriately diluted in wash buffer) was added to each well and the plate was incubated for 1 hour at 37° C. The wells were then again washed 3 times in wash buffer and blotted with paper towels after the last wash. […] The absorbance values were read immediately at the appropriate wavelength and the data analyzed by Cmax Plus, Molecular Devices, San Jose, CA 95134, USA, […]

[3] = molecular target: T2, HCMV US28 (strain DB) on CHO-US28-A1 cells (Human cytomegalovirus, UniProt P69332, D170N/D19A); assay: FACS surface binding to CHO-US28-A1 cells; conditions: CHO-US28-A1 cells compared with US28 negative control CHO cells
T2 construct: expressed in transfected cells; host or cells: CHO-K1 (vector pCDH-EF1a-MCS)
Procedure: Plasmid construction was performed to create a US28-overexpressing cell line. The US28 sequence, identical to HCMV DB strain (Acc. Number: KT959235; SEQ ID No. 5 of this application), fused to a 6His tag at its C terminal part, was inserted into the pCDH-EF1a-MCS vector (Creative Biolabs, Shirley, NY 11967, USA). The plasmid construct was transfected to CHO-K1 cell line. The cells were collected 48 hours after transfection. The cell line was named as CHO-US28-A1-6His and its protein sequence (SEQ ID NO: 47) is the following:
as §1
The primary antibodies used were I) 13-5G6-1D3 (50 μg/ml) as a positive control; II) Monovalent and Bivalent VUN100 ScFvs 1:1 (50 μg/ml); III) test antibodies for the specified subclones (1:5).
The primary antibodies used were I) 13-5G6-1D3 1:50 to 50 μg/ml; and II) Commercial US28 polyclonal antibody (50 μg/ml), III) Monovalent and Bivalent VUN100 ScFvs (50 μg/ml) and for certain experiments, the appropriate isotype controls were included.
as §2, §3, §4

Molecule	Percentage of binding to CHO cells [1] [%]	Absorbance values, Peptide 2 [2]	Binding Specificity (ratio of surface binding) [3]
B1	0.62	3.029	–
B2	0.58	2.842	–
B3	–	–	15.2*
